Source: article PMC4027205, “TstI, a Type II restriction–modification protein with DNA recognition, cleavage and methylation functions in a single polypeptide”
Blank lines part the entries; values can stand above or below the molecule they belong to.

How the values were obtained:
[1] = biological target: TstI RM protein (His-tagged form) (Thermus scotoductus RFL1); assay: AUC; sedimentation equilibrium; TstI 0.1-0.3 mg/ml in 20 mM Tris-HCl pH 8.4, 100 mM KCl, 10 mM MgCl2, 20°C; 5000, 6000 and 7500 rpm; global fit to a single ideal species
[2] = biological target: T1, TstI restriction-modification protein (His-tagged) (Thermus scotoductus RFL1 (printed as T. scotoductus RFL1)) (UniProt A6H2J1); assay: cleavage kinetics: kobs vs enzyme concentration, hyperbolic fit (no direct binding read-out); details: EMSA conditions not given (data not shown); cleavage in buffer R (composition not in material), 37 C
T1 sequence: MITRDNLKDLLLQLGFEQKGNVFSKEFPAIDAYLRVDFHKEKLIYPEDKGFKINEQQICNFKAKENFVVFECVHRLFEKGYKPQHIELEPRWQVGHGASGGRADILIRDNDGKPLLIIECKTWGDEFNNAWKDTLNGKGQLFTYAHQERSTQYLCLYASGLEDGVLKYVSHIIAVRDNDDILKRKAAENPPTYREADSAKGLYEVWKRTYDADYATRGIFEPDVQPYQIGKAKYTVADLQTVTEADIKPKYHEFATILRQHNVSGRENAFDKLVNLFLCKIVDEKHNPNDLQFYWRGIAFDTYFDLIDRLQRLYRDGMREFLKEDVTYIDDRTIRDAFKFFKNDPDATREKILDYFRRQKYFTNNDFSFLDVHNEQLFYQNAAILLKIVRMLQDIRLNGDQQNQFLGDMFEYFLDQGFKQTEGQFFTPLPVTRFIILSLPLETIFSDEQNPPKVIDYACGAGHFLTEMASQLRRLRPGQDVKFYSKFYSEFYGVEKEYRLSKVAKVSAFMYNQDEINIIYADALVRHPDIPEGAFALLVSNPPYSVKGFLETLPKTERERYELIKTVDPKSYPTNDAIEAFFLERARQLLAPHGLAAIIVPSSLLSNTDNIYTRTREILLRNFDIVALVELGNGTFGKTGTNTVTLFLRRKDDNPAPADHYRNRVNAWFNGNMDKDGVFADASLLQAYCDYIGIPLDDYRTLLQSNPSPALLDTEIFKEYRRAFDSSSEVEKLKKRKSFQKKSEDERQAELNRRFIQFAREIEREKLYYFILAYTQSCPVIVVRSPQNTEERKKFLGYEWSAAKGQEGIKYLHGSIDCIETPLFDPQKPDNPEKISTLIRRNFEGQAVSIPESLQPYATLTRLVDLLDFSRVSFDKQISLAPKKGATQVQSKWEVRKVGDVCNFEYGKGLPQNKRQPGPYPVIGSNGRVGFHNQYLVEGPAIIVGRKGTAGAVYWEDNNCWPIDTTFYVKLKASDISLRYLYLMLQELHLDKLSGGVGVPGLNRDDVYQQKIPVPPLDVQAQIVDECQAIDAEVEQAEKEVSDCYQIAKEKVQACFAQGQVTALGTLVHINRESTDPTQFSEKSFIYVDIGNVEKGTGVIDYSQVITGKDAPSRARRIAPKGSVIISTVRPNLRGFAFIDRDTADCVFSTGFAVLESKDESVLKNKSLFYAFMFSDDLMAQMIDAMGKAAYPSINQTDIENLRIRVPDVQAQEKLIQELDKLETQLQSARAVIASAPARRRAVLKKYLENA

[3] = biological target: T2, TstI restriction-modification protein (His-tagged) (Thermus scotoductus RFL1 (printed as T. …, UniProt A6H2J1 1-1251)); assay: EMSA; data not shown; EMSA conditions not given (data not shown); cleavage in buffer R (composition not in material), 37 C; details: protein: recombinant; tags: N-terminal His tag (pET15b, 20 extra aa); chain copies: 4
T2 sequence: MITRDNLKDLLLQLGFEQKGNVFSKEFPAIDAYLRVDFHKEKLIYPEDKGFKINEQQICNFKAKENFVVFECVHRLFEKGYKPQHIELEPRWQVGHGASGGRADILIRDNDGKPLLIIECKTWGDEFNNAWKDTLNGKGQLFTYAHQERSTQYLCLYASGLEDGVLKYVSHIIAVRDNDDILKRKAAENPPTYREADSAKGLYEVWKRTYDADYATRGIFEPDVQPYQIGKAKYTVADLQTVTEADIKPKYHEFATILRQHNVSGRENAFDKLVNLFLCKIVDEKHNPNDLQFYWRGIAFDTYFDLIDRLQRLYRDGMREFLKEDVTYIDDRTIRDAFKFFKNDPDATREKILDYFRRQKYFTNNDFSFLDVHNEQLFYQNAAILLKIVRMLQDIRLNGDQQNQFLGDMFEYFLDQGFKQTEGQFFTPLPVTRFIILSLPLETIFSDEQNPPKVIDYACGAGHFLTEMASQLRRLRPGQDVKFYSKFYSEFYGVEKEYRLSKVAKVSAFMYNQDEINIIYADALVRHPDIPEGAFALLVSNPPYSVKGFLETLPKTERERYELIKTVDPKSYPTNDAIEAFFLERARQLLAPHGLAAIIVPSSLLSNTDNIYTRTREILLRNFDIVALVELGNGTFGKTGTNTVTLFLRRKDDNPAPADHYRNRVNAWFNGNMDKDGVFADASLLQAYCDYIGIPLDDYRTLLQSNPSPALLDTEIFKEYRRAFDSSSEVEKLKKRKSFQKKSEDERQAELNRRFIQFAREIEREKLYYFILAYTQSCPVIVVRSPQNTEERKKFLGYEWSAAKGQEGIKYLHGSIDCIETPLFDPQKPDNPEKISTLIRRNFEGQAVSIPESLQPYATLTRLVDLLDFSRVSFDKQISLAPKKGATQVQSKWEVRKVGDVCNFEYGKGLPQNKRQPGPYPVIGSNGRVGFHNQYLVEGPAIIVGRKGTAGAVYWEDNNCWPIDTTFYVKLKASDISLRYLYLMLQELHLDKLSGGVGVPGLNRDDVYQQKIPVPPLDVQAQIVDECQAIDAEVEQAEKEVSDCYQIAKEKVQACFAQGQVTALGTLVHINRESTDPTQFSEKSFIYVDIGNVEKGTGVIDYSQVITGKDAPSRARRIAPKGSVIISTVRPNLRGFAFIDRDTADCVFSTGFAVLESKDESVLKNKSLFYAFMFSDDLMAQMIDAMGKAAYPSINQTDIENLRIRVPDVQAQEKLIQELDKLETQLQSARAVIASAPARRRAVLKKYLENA

stoichiometry N [1]: 4
Molecule: TstI RM protein (His-tagged form) (enzyme)

Molecule: pTST1
K half [2]: 19 nM

B1: 50NS (dsDNA)
DNA 1: CTGTCTGAGATACACTCGTCTCGAACAAACCATCCAGTCTCTGACTATGT
DNA 2: ACATAGTCAGAGACTGGATGGTTTGTTCGAGACGAGTGTATCTCAGACAG
binding result [3]: binds
